From PMC4763223 come the findings set out here.

Holding throughout (test): GEMMA (gas-phase electrophoretic mobility macromolecule analysis); DNA-free protein; equilibrated into 100 mM ammonium acetate pH 7.8, diluted to 20 mM ammonium acetate and 0.005% Tween-20; low flow-rate (pressure 2 Psi); non-tagged Kat1 at 0.085 mg/ml
In assay [1] the target is Glutathione S-transferase (GST) alone.
Assay [2] deals with Glutathione S-transferase (GST)-tagged Kat1+G (Kluyveromyces lactis hAT-transposase 1) (Kluyveromyces lactis).
The target in assay [3] is non-tagged Kat1 (GST-tag cleaved from GST-Kat1 with thrombin) (Kluyveromyces lactis).

Broadly, the stoichiometry N is a count of units in the complex or per binding partner.

Sequence of Glutathione S-transferase (GST) alone (P08515 2-218): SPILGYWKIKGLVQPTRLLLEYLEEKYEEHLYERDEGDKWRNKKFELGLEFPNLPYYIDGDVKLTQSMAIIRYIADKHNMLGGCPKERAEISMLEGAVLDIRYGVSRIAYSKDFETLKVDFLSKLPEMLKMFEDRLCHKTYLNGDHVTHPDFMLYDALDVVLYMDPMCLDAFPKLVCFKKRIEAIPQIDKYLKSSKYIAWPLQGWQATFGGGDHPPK

Turning to “Glutathione S-transferase (GST) alone (enzyme)”, in assay [1], the stoichiometry N is 2.

Turning to “Glutathione S-transferase (GST)-tagged Kat1+G (Kluyveromyces lactis hAT-transposase 1) (enzyme)”, in assay [2], the stoichiometry N was 6.

“non-tagged Kat1 (GST-tag cleaved from GST-Kat1 with thrombin) (enzyme)” registered a stoichiometry N in assay [3] of 6.
